± gives the standard error. Fewer inactive variants are shown than the library holds.
B1: glmS ribozyme (parent)
chain: AUAAAAGCGCCAGAACUACAGAAAUGUAGUUGACGAGGAGGAGGUUUAUCGAAUUUUCGGCGGAUGCCUCCAAA

How the values were obtained:
Settings in all cases: with glucosamine-6-phosphate
glucosamine-6-phosphate [1] = variants of: B1; test: self-cleavage kobs at 640 uM GlcN6P; higher = faster cleavage; RNA array
Summary of the method: (§1)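 kobs was derived by fitting per-tile medians to one- or two-exponential decays after normalising signals to baseline and to non-cleaving reference variants. Those signals came from barcoded ribozyme variants transcribed in situ by E. coli RNA polymerase on sequenced MiSeq chips, followed through a hybridised Cy3 probe at 37 °C and imaged over ~14 h. Glucosamine-6-phosphate (40 μM to 10 mM) in HEPES/KCl/Mg(OAc)2 buffer was flowed in. Weighted Michaelis–Menten fits across concentrations then gave kcat and KM.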

glucosamine-6-phosphate [2] = variants of: B1; test: self-cleavage kobs at 2500 uM GlcN6P; higher = faster cleavage; RNA array
Summary of the method: as §1

glucosamine-6-phosphate [3] = variants of: B1; test: self-cleavage kobs at 10000 uM GlcN6P; higher = faster cleavage; RNA array
Summary of the method: as §1

| Variant | self-cleavage kobs at 640 uM GlcN6P (glucosamine-6-phosphate [1]) [s⁻¹] | self-cleavage kobs at 2500 uM GlcN6P (glucosamine-6-phosphate [2]) [s⁻¹] | self-cleavage kobs at 10000 uM GlcN6P (glucosamine-6-phosphate [3]) [s⁻¹] |
| --- | --- | --- | --- |
| A12G A48C A52U | < 1e-05 | < 1e-05 |  |
| G13C U31A G38U A39U G40C | < 1e-05 |  |  |
| A14G G35A G43A C61U | < 1e-05 |  |  |
| C11U C50U G60C | < 1e-05 |  |  |
| C11G A42U G59U | < 1e-05 | < 1e-05 |  |
| C11A G13U U57G C71U | 4.71e-05 ± 2.2e-05 |  |  |
| A14C A33C A53U U55A G60U | < 1e-05 | < 1e-05 |  |
| G13C G41U C71U | < 1e-05 |  |  |
| A12C G35A A36C U56G G60C | < 1e-05 | < 1e-05 |  |
| A12C A14U C16G G35C G62U | < 1e-05 |  |  |
| A15C G44C C50U | < 1e-05 | < 1e-05 |  |
| A15C G51A G59C | < 1e-05 | < 1e-05 |  |
| A12U C16A C50A A64G | < 1e-05 |  |  |
| G13A A15C G60U | < 1e-05 |  |  |
| A14U A42C A64C | < 1e-05 | < 1e-05 | < 1e-05 |
| G13U G43C C67U | < 1e-05 | < 1e-05 | < 1e-05 |
| A12C G41A A42U G51C C68G C70U | < 1e-05 |  |  |
| G13U G29U A52C | < 1e-05 |  |  |
| C11A C50G C61A | 0.000272 ± 7.9e-05 | 0.000188 ± 3.7e-05 |  |
| A12G G37C U57A | < 1e-05 | < 1e-05 |  |
| G13U A39G U55G | 0.000281 ± 8e-05 | 0.000683 ± 0.00022 | 0.0028 ± 0.00059 |
| C11G G13U C50G G60U C61G | 5.02e-05 ± 2.4e-05 |  |  |
| A12U C16G G32A | 9.86e-05 ± 2.9e-05 | 0.000137 ± 4.8e-05 |  |

| Variant | self-cleavage kobs at 640 uM GlcN6P (glucosamine-6-phosphate [1]) [s⁻¹] | self-cleavage kobs at 2500 uM GlcN6P (glucosamine-6-phosphate [2]) [s⁻¹] | self-cleavage kobs at 10000 uM GlcN6P (glucosamine-6-phosphate [3]) [s⁻¹] |
| --- | --- | --- | --- |
| C11G G44U C50G G62C | < 1e-05 | < 1e-05 |  |
| A14G G21U U31G G38U U57C | < 1e-05 | < 1e-05 |  |
| G13C G29U G41U C68A C70A | < 1e-05 |  |  |
| A12C G29A G37A | 0.000302 ± 8.2e-05 | 0.000142 ± 5.2e-05 |  |
| A14U A36G U47A | < 1e-05 | < 1e-05 |  |
| A15G A33G A53U | < 1e-05 |  |  |
| G13U G66C U69G | 7.62e-05 ± 2.3e-05 |  |  |
| A14C A53U C67U | 0.000153 ± 4.6e-05 | 0.000626 ± 0.0002 |  |
| C11G C58G C70U | 8.61e-05 ± 2.4e-05 |  |  |
| A14U U65A C70U | 0.000274 ± 4.7e-05 | 0.000248 ± 9.4e-05 | 0.000945 ± 0.0002 |
| G13U G35U G40U A53U | < 1e-05 |  |  |
| A12U U31A C34U G37C C70U | < 1e-05 |  |  |
| A12G U46G C58G G63U U69A | 0.000158 ± 6.3e-05 |  |  |
| G13A U57A A64C C68A | 0.000763 ± 0.00019 |  |  |
| A14U G40A U56G U57C | < 1e-05 | < 1e-05 |  |
| C11A A33U A52G C68G | 0.000157 ± 6.4e-05 |  |  |
| A14U C58A C70A | 7.42e-05 ± 2.4e-05 |  |  |
| A12G U30A A52C U54C | < 1e-05 | < 1e-05 |  |
| C11A U30G U65C | < 1e-05 | < 1e-05 |  |
| A14U A15U C68U | 8.97e-05 ± 2.4e-05 | 0.000111 ± 3.2e-05 |  |
| C10U U31C U49C | < 1e-05 |  |  |
| C11A G38U U47A | < 1e-05 |  |  |
| G13C C16G G41A | < 1e-05 |  |  |

| Variant | self-cleavage kobs at 640 uM GlcN6P (glucosamine-6-phosphate [1]) [s⁻¹] | self-cleavage kobs at 2500 uM GlcN6P (glucosamine-6-phosphate [2]) [s⁻¹] | self-cleavage kobs at 10000 uM GlcN6P (glucosamine-6-phosphate [3]) [s⁻¹] |
| --- | --- | --- | --- |
| G13A C16G G29U G37A G40U | < 1e-05 |  |  |
| A12C G66U C70G | 7.67e-05 ± 2.5e-05 |  |  |
| A14C C34G A64G | < 1e-05 | < 1e-05 |  |
| C11A A14G G41U G51C | < 1e-05 | < 1e-05 |  |
| A14G C16U U45A G51U C61G | < 1e-05 |  |  |
| C11G A14U A52U C68G | 0.000115 ± 3.6e-05 |  |  |
| G13U G62C C70U | < 1e-05 |  |  |
| G13A A52U C70G | < 1e-05 |  |  |
| G13C U46A G66A C70A | < 1e-05 |  |  |
| C11U G13A G44U | < 1e-05 | < 1e-05 |  |
| A12U G44C A48U C58G C67G C71U | < 1e-05 | < 1e-05 |  |
| A12U G13U U46G | < 1e-05 |  |  |
| C11A U30G G32U G44A G66A | < 1e-05 | < 1e-05 |  |
| A14C G37A A39U C68A | < 1e-05 |  |  |
| C11U U47A A53G U56A C70G | 5.74e-05 ± 1.8e-05 | 0.000104 ± 3.4e-05 |  |
| C11U G41U A48G | < 1e-05 |  |  |
| A15C A48U C68U | < 1e-05 |  |  |
| G13C G35U A52U | < 1e-05 |  |  |
| C10U U30A A33U | < 1e-05 |  |  |
| C11U G32C A36G | < 1e-05 | < 1e-05 | < 1e-05 |
| A14U U46C C70U | 0.000206 ± 5e-05 |  |  |
| A14U G44U U54A G59C C68U | < 1e-05 | < 1e-05 |  |
| A14G C16G U30C | 9.39e-05 ± 1.9e-05 |  |  |

Source: the supplement of paper PMC7125110
